From article PMC4876015 (Structure (London, England : 1993), 2016)

B1: KcsA V76ester channel (semisynthetic, full length) (natural protein, UniProt P0A334 1-160, looked up)
chain: MPPMLSGLLARLVKLLLGRHGSALHWRAAGAATVLLVIVLLAGSYLAVLAERGAPGAQLITYPRALWWACETATTVGYGDLCPVTLWGRLVAVVVMVAGITSFGLVTAALATWFVGREQERRGHFVRHSEKAAEEAYTRTTRALHERFDRLERMLDDNRR
modifications: peptide bond between residues 75 and 76 (Thr75-Val76, the 4' amide bond) replaced with an ester linkage
B2: KcsA V76ester channel, truncated for crystallization (domain or fragment, UniProt P0A334 1-125, looked up)
chain: MPPMLSGLLARLVKLLLGRHGSALHWRAAGAATVLLVIVLLAGSYLAVLAERGAPGAQLITYPRALWWACETATTVGYGDLCPVTLWGRLVAVVVMVAGITSFGLVTAALATWFVGREQERRGHF
modifications: peptide bond between residues 75 and 76 (Thr75-Val76, the 4' amide bond) replaced with an ester linkage

Legend:
[1] = target: the molecule itself; experiment: SDS-PAGE of the folded channel
crystal structure = target: the molecule itself; experiment: crystal structure

Protein	stoichiometry N [1]	binding result (crystal structure)
B1	4	–
B2	–	binds
